Reference: US20080299140A1, “Immunogenic Composition and Peptide Sequences for Prevention and Treatment of an Hsv Condition” (priority 2002, published 2008)

What was measured:
[1] = target: HLA-DR(α1*0101,α3*0101) (human); assay: competition assay on purified HLA; tracer LOL (191-210)
[2] = target: HLA-DR(α1*0101,α1*1301) (human); assay: competition assay on purified HLA; tracer B1 (21-36)
[3] = target: HLA-DP(α1*0101,α1*0401) (human); assay: competition assay on purified HLA; tracer bOxy 271-287
[4] = target: HLA-DR(α1*0101,α4*0101) (human); assay: competition assay on purified HLA; tracer E2/E168
[5] = target: HLA-DR(α1*0101,α1*1501) (human); assay: competition assay on purified HLA; tracer A3 (152-166)
[6] = target: DP401=HLA-DP(α1*0101,α1*0401) (human); assay: HLA class II competition binding assay, biotinylated tracer peptide
[7] = target: DRB3=HLA-DR(α1*0101,α3*0101) (human); assay: as above
[8] = target: DR11=HLA-DR(α1*0101,α1*1101) (human); assay: as above
[9] = target: DRB4=HLA-DR(α1*0101,α4*0101) (human); assay: as above
[10] = target: DR15=HLA-DR(α1*0101,α1*1501) (human); assay: as above
[11] = target: DR13=HLA-DR(α1*0101,α1*1301) (human); assay: as above
[12] = target: DR1=HLA-DR(α1*0101,α1*0101) (human); assay: as above
[13] = target: HLA-DR(α1*0101,α1*0101) (human); assay: competition assay on purified HLA; tracer HA (307-319)
[14] = target: HLA-DR(α1*0101,α1*1101) (human); assay: as above
[15] = target: DRB5=HLA-DR(α1*0101,α5*0101) (human); assay: HLA class II competition binding assay, biotinylated tracer peptide
[16] = target: DR3=HLA-DR(α1*0101,α1*0301) (human); assay: as above
[17] = target: HLA-DR(α1*0101,α1*0301) (human); assay: competition assay on purified HLA; tracer MT (2-16)
[18] = target: HLA-DR(α1*0101,α5*0101) (human); assay: competition assay on purified HLA; tracer HA (307-319)
[19] = target: DP (α1*0101, α1*0402) (human); assay: competition assay on purified HLA; tracer bOxy 271-287
[20] = target: DP402=HLA-DR(α1*0101,α1*0402) (human); assay: HLA class II competition binding assay, biotinylated tracer peptide
[21] = target: DR7=HLA-DR(α1*0101,α1*0701) (human); assay: as above
[22] = target: DR4=HLA-DR(α1*0101,α1*0401) (human); assay: as above
[23] = target: HLA-DR(α1*0101,α1*0401) (human); assay: competition assay on purified HLA; tracer HA (307-319)
[24] = target: HLA-DR(α1*0101,α1*0701) (human); assay: competition assay on purified HLA; tracer YKL

| Substance | IC50 [1] [nM] | IC50 [2] [nM] | IC50 [3] [nM] | IC50 [4] [nM] | IC50 [5] [nM] | IC50 [6] [nM] | IC50 [7] [nM] | IC50 [8] [nM] | IC50 [9] [nM] | IC50 [10] [nM] | IC50 [11] [nM] | IC50 [12] [nM] | IC50 [13] [nM] | IC50 [14] [nM] | IC50 [15] [nM] | IC50 [16] [nM] | IC50 [17] [nM] | IC50 [18] [nM] | IC50 [21] [nM] | IC50 [24] [nM] | other results |
| --- | --- | --- | --- | --- | --- | --- | --- | --- | --- | --- | --- | --- | --- | --- | --- | --- | --- | --- | --- | --- | --- |
| HSV1 41 (gD96-123) (peptide) | > 100000 | 4760 | 257 | 1670 | 167 | 267 | > 100000 | 598 | 1670 | 167 | 4760 | 3 | 3 | 598 | – | – | – | – | – | – | – |
| HSV1 5 (gB173-204) (peptide) | – | – | – | 90000 | – | – | – | – | 90000 | – | – | – | – | – | – | – | – | – | – | – | – |
| HSV1 6 (gB243-282) (peptide) | – | – | – | – | 1 | – | – | – | – | 1 | – | 1 | 1 | – | 9 | 4000 | 4000 | 9 | – | – | – |
| HSV1 40 (gD228-257) (peptide) | > 100000 | 1590 | 1360 | 1160 | 2 | 1360 | > 100000 | 39 | 1160 | 2 | 1590 | 1160 | 1160 | 39 | – | 2390 | 2390 | – | 20 | 20 | IC50 [19]: 7210 nM; IC50 [20]: 7210 nM; IC50 [22]: 9920 nM; IC50 [23]: 9920 nM |
| HSV1 8 (gB765-799) (peptide) | 55000 | 314 | 107 | 232 | 3 | 107 | 55000 | 4 | 232 | 3 | 314 | 2 | 2 | 4 | 2 | 4780 | 4780 | 2 | 20 | 20 | – |
| HSV1 12 (gB568-594) (peptide) | – | > 100000 | – | – | – | – | – | – | – | – | > 100000 | – | – | – | – | > 100000 | > 100000 | – | – | – | – |
| HSV1 36 (gD49-82) (peptide) | 5000 | > 100000 | 615 | – | 18 | 615 | 5000 | 120 | – | 18 | > 100000 | 3 | 3 | 120 | 66 | 1250 | 1250 | 66 | 173 | 173 | IC50 [19]: 98 nM; IC50 [20]: 98 nM; IC50 [22]: 93 nM; IC50 [23]: 93 nM |
| HSV1 3 (gB111-140) (peptide) | – | 500 | 80 | – | 30 | 60 | – | – | – | – | – | – | – | – | – | – | – | – | – | – | – |
| HSV1 11 (gB453-483) (peptide) | > 100000 | > 100000 | – | – | – | – | > 100000 | – | – | – | > 100000 | – | – | – | – | > 100000 | > 100000 | – | 30 | 30 | – |
| HSV1 30 (gD0-28) (peptide) | 535 | > 100000 | 17900 | > 100000 | 11000 | 17700 | 535 | 648 | > 100000 | 11000 | > 100000 | – | – | 648 | 7 | 79 | – | 7 | 374 | 374 | IC50 [19]: 3800 nM; IC50 [20]: 3800 nM |
| HSV1 31 (gD22-52) (peptide) | 5980 | > 100000 | 62000 | 397 | – | 62000 | 6980 | – | 397 | – | > 100000 | 3 | 3 | – | – | 2490 | 2490 | – | – | – | IC50 [19]: 47000 nM; IC50 [20]: 49000 nM; IC50 [22]: 63 nM; IC50 [23]: 63 nM |
